Read-outs that look alike come from different tables or passages of the source.
Tests used:
[1] = molecular target: T1, full length human CD40 (uniprot # P25942-1) on the membrane of 293T-CD40 cells (human, UniProt P25942 21-277); assay: cell-based or functional assay
[2] = molecular target: T1, full length human CD40 (uniprot # …); assay: flow cytometry on 293T-CD40 cells
Protocol: 2×10⁵ cells per well in 96 well-plates were incubated with the mouse anti-CD40 antibodies or the controls of various concentrations in FACS buffer for 40 minutes on ice. […] Following an incubation of 40 minutes at 4° C. in dark, cells were washed three times and resuspended in FACS buffer. Fluorescence was measured using a Becton Dickinson FACS Canto II-HTS equipment and plotted against antibody concentration.

[3] = molecular target: T2, human CD40-Fc protein (amino acid residue 21-193 of SEQ ID NO: 67 linked to N-terminus of amino acid residue … (human, biotin-labeled in the capture ELISA and in the benchmark blocking ELISA; unlabeled when coated in the ligand blocking ELISA); assay: capture ELISA, biotin human CD40-Fc; mAb at 16 ng/mL
T2 construct: also called biotin-labeled human CD40-Fc; human CD40-Fc-biotin
Protocol: (§1) Plates were washed 4 times with wash buffer (PBS+0.05% Tween-20, PBST) and then blocked with 200 μl/well blocking buffer (5% w/v non-fatty milk in PBST) for 2 hours at 37° C. […] After a final wash, plates were incubated with 100 μl/well ELISA substrate TMB (Innoreagents, Cat # TMB-S-002). The reaction was stopped in 15 minutes at 25° C. with 50 μl/well 1M H₂SO₄, and the absorbance was read at 450 nm and plotted against antibody concentration. Data were analyzed using Graphpad Prism software and EC₅₀ values were reported.

[4] = molecular target: T2, human CD40-Fc protein (amino acid …); assay: capture ELISA, biotin human CD40-Fc; mAb at 80 ng/mL
Protocol: as §1

[5] = molecular target: T2, human CD40-Fc protein (amino acid …); assay: capture ELISA, biotin human CD40-Fc; mAb at 3.2 ng/mL
Protocol: as §1

[6] = molecular target: T2, human CD40-Fc protein (amino acid …); assay: capture ELISA, biotin human CD40-Fc; mAb at 400 ng/mL
Protocol: as §1

[7] = molecular target: T2, human CD40-Fc protein (amino acid …); assay: capture ELISA; antibody captured, biotin-labeled human CD40-Fc in solution
Protocol: as §1
(§2) In the capture ELISA test, a mouse control antibody targeting a protein other than CD40 was used.

[8] = molecular target: T2, human CD40-Fc protein (amino acid …); assay: competitive ELISA; biotin human CD40-Fc in solution, competitor coated BM2
Protocol: The ability of the mouse anti-CD40 antibodies of the present invention to block the binding of the Benchmark to human CD40 was measured using a competitive ELISA assay. […] The next day, plates were washed with wash buffer, and blocked with 5% w/v non-fatty milk in PBST for 2 hours at 37° C. Plates were then washed again using wash buffer. […] After incubation at 37° C. for 40 minutes, plates were washed 4 times using wash buffer. Then streptavidin conjugated HRP was added and incubated for 40 minutes at 37° C. to detect biotin-labeled human CD40-Fc bound to plates. Plates were washed again using wash buffer. Finally, TMB was added and the reaction was stopped using 1M H₂SO₄, and the absorbance was read at 450 nm. Data were analyzed using Graphpad Prism software and IC₅₀ values were reported.
as §2

[9] = molecular target: T2, human CD40-Fc protein (amino acid …); assay: competitive ELISA; coated human CD40-Fc, competitor biotin human CD40L-his
Protocol: Briefly, human CD40-Fc proteins (amino acid residue 21-193 of SEQ ID NO: 67 linked to N-terminus of amino acid residue 99-330 of SEQ ID NO.: 24) were coated on 96-well micro plates at 2 μg/mL in coating buffer (PBS) and incubated overnight at 4° C. The next day, plates were washed with wash buffer (PBS+0.05% Tween-20, PBST), and blocked with 5% w/v non-fatty milk in PBST for 2 hours at 37° C. Plates were then washed again using wash buffer.
(§3) Serially diluted the mouse anti-CD40 antibodies of the present invention or the controls (starting at 200 nM with a four-fold serial dilution) in 2.5% w/v non-fatty milk in PBST were prepared to the plates and incubated with the human CD40-Fc proteins at room temperature for 40 minutes. […] Plates were washed again. 100 μl/well of streptavidin conjugated HRP was added and incubated for 40 minutes at 37° C. Plates were washed again using wash buffer. Finally, TMB was added and the reaction was stopped using 1M H₂SO₄, and the absorbance was read at 450 nm. Data were analyzed using Graphpad Prism software and IC₅₀ values were reported.
as §2

[10] = molecular target: T2, human CD40-Fc protein (amino acid …); assay: capture ELISA; antibody captured, biotin-labeled human CD40-Fc in solution; remark: listed apart in the source
Protocol: as §1

[11] = molecular target: T2, human CD40-Fc protein (amino acid …); assay: ligand blocking ELISA: human CD40-Fc coated, antibody titrated, then biotin-labeled human CD40L-his (blocked ligand), streptavidin-HRP, OD(450-630)
Protocol: as §3

B1: mouse anti-CD40 monoclonal antibody C1C1 (antibody, V domains shown)
VH: EVKLVESGGGLVKPGASLKLSCAASGFTFSNYGMSWVRQNSDKRLEWVASISSGGDDTYYPDNVKGRCTISRENAKNTLYLEMSSLKTEDTALYYCTRAGGKAMDYWGQGTSVTVST
VL: DIVLTQSPATLSVIPGNSVSLSCRASQSIRDNLHWYQQKSHESPRLLINYASQSISGIPSRFSGSGSGTDFTLTINSVETEDFGIYFCQQFNSWPLTFGGGTKLELK
notes: those are used here for the chimeric antibody only; also called Mouse C1C1; mouse C1C1
[1]
  cell based functional assay (EC50, nM): 2.51 nM
[2]
  EC50: 1.86 nM
[3]
  absorbance at 450 nm: 0.764 OD450
[4]
  absorbance at 450 nm: 1.48 OD450
[5]
  absorbance at 450 nm: 0.288 OD450
[6]
  absorbance at 450 nm: 1.69 OD450
[7]
  EC50: 0.192 nM
[8]
  IC50: 0.461 nM
[9]
  IC50: 5.4 nM
[10]
  EC50: 0.000155 µg/mL
[11]
  IC50 (read off the curve): ~0.8 µg/mL

B2: chimeric antibody C1C1 (antibody, human IgG1, kappa, V domains shown)
VH: B1 VH
VL: DIVLTQSPATLSVIPGNSVSLSCRASQSIRDNLHWYQQKSHESPRLLINYASQSISGIPSRFSGSGSGTDFTLTINSVETEDFGIYFCQQFNSWPLTFGGGTKLELKR
notes: also called chC1C1; chimeric C1C1
[1]
  cell based functional assay (EC50, nM): 3.28 nM
[2]
  EC50: 1.82 nM
[3]
  absorbance at 450 nm: 0.329 OD450
[4]
  absorbance at 450 nm: 1.17 OD450
[5]
  absorbance at 450 nm: 0.082 OD450
[6]
  absorbance at 450 nm: 1.79 OD450
[7]
  EC50: 0.24 nM
[8]
  IC50: 0.13 nM
[9]
  IC50: 4.83 nM
[10]
  EC50: 0.000384 µg/mL
[11]
  IC50 (read off the curve): ~0.8 µg/mL
